Assay [1] deals with T1, recombinant cynomolgus monkey CD96v2 (cynomolgus monkey, UniProt A0A2K5TWV6 22-487, biotinylated (site not stated)).
T1 construct: Soluble recombinant protein used in MSD-SET; also called cynomolgus monkey biotinylated CD96 protein
T1 sequence: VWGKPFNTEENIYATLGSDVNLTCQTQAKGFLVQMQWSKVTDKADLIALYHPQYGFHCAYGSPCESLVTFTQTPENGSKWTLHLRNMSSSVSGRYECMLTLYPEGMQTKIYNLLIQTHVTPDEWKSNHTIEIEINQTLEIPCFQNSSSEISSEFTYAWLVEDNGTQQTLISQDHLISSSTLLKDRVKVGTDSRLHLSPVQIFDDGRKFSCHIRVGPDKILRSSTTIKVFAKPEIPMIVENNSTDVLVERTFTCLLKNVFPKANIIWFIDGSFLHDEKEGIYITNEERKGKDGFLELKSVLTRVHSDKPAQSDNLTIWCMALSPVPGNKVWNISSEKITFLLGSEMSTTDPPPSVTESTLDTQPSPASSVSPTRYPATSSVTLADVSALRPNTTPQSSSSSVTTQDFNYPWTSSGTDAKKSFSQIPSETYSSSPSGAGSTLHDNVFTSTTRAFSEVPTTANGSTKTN
The assay is described as follows: MSD solution equilibrium titration (MSD-SET), 25 C.

Assay [2] concerns the target T2, recombinant murine CD96v2 (mouse, UniProt Q3U0X8 22-536, limits assumed).
T2 construct: Soluble recombinant protein used in MSD-SET; also called mouse CD96
T2 sequence (looked up): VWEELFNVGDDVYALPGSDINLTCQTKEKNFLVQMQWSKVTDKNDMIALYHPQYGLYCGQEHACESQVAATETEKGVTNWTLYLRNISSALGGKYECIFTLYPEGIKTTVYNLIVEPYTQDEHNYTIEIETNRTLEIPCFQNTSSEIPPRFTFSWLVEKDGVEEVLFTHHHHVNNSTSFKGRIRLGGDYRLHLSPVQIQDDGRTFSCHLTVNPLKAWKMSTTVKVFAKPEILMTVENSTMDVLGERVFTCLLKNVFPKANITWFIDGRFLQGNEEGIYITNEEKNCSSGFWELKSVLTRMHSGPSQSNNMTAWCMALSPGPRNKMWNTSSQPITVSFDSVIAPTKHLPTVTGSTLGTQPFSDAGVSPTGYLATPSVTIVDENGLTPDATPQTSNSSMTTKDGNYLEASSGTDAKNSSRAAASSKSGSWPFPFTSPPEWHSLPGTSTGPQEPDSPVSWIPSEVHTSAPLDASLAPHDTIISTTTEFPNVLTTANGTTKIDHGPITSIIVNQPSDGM
Briefly: MSD solution equilibrium titration (MSD-SET), 25 C.

The target in assay [3] is T3, cynomolgus monkey CD96v2 expressed on cells (CHO cells; transiently transfected HEK cells) (cynomolgus monkey, UniProt A0A2K5TWV6 22-569).
T3 construct: the cell is named under assay; also called CHO-cyCD96; Cyno CD96v2
T3 sequence: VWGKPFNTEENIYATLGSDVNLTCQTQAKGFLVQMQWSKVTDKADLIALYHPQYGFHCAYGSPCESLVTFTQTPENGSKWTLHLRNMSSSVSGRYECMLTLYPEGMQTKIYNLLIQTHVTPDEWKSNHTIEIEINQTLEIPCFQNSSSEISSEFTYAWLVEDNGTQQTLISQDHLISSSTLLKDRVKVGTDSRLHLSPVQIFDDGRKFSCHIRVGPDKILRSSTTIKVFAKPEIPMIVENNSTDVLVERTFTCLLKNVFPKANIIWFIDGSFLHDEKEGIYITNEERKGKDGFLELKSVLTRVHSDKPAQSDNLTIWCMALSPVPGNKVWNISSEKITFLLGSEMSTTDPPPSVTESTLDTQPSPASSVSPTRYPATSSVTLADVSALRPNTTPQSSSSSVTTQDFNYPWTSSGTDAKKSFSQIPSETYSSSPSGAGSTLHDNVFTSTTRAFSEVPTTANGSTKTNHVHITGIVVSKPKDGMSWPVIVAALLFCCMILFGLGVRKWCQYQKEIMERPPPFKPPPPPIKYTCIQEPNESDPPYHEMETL
Briefly: flow cytometry on CHO cells expressing cynomolgus CD96v2.

Assay [4] has as its target T4, cynomolgus monkey CD96, native, on primary cynomolgus monkey T cells (cynomolgus monkey, UniProt A0A2K5TWV6 22-569).
T4 construct: whole, on cells
T4 sequence: T3 sequence
The assay is described as follows: flow cytometry on activated cynomolgus monkey T cells, donor 2.

For assay [5], the target named is T5, human CD96v2 expressed on cells (CHO cells; transiently transfected HEK cells) (human, UniProt P40200-2 22-569).
T5 construct: whole, on cells; the cell is named under assay; also called CHO-huCD96; hCD96v2
T5 sequence (looked up): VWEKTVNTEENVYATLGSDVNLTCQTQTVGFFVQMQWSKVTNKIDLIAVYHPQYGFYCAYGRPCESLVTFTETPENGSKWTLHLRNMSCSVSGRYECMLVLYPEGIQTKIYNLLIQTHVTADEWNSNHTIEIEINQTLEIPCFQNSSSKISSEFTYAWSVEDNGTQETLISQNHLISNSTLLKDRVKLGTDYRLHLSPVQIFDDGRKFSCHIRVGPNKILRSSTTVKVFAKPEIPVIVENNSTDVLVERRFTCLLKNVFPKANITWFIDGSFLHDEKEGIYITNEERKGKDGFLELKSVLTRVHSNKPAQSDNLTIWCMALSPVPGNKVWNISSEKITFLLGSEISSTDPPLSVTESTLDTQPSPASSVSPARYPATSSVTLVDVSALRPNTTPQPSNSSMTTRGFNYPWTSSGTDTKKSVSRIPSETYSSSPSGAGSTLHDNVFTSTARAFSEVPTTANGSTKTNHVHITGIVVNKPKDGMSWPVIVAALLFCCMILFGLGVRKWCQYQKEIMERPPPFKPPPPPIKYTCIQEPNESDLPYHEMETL
The assay is described as follows: flow cytometry on transiently transfected HEK cells (Human CD96v2).

This note sets out measurements from patent US12528864 (GlaxoSmithKline, dated 2026).

B1: 42Y073-86F08-66 (antibody)
heavy: not shown
light: DIQLTQSPSSLSASVGDRVTITCRASQSISSYLNWYQQKPGKAPKLLIYAASSLQSGVPSRFSGSGSGTDFTLTISSLQPEDFATYYCQQVLHTITFGGGTKVEIKRTVAAPSVFIFPPSDEQLKSGTASVVCLLNNFYPREAKVQWKVDNALQSGNSQESVTEQDSKDSTYSLSSTLTLSKADYEKHKVYACEVTHQGLSSPVTKSFNRGEC
notes: also called GSK 6097608; GSK6097608
B1: the Kd in assay [1] stood at 278 pM; in assay [2] it was 479 pM. In assay [3], the concentration for a half-maximal effect (EC50) was found to be 20 pM. Also, the “EC50 (read off the curve)” value in assay [4] is around 100 pM; in assay [5] it was around 6000 pM.
